Values quoted from earlier work in paper PMC10947324.

How the values were obtained:
Conditions in all cases: monomeric, unstructured Abeta
His13 = His13 (UniProt position 684, SGYEVHHQKLV)
His14 = His14 (UniProt position 685, GYEVHHQKLVF)
His6 = His6 (UniProt position 677, DAEFRHDSGYE)

## Amyloid-beta peptide (Abeta), monomeric (Homo sapiens (inferred; the article discusses the peptide of Alzheimer's disease patients))
His13
  pKa: 6.64
His14
  pKa: 6.67
His6
  pKa: 6.67
